From PMC2932712, “Formation of Mobile Chromatin-Associated Nuclear Foci Containing HIV-1 Vpr and VPRBP Is Critical for the Induction of G2 Cell Cycle Arrest” (PLoS Pathogens, 2010) come the findings set out here.

Holding throughout (assay): FRET or BRET; BRET saturation in live HEK293T cells; fixed Rluc donor plasmid (10 ng), increasing eYFP acceptor plasmid (0 to 500 ng); coelenterazine H; BRET50 as relative affinity
Details in all cases: partners not purified

One assay deals with T1, Rluc-Vpr (WT) (HIV-1, UniProt P05928 1-96).
T1 construct: BRET donor; also called pCDNA3.1-Rluc-Vpr (WT); source: HEK293T, transfected, in live cells; not shown: renilla luciferase (Rluc), N-terminal, kept
T1 sequence: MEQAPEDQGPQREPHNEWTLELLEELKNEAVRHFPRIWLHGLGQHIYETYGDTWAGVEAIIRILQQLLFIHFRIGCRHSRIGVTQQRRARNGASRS

Another assay deals with T2, Rluc-Vpr (Q65R) (HIV-1, UniProt P05928 1-96, Q65R).
T2 construct: BRET donor; also called the Q65R mutant; pCDNA3.1-Rluc-Vpr (Q65R); source: HEK293T, transfected, in live cells; not shown: renilla luciferase (Rluc), N-terminal, kept
T2 sequence: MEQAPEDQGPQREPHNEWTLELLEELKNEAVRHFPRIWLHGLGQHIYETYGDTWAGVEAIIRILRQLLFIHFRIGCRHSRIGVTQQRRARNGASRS

A further assay deals with T3, Rluc-Vpr (R80A) (HIV-1, UniProt P05928 1-96, R80A).
T3 construct: BRET donor; also called the R80A mutant; pCDNA3.1-Rluc-Vpr (R80A); source: HEK293T, transfected, in live cells; not shown: renilla luciferase (Rluc), N-terminal, kept
T3 sequence: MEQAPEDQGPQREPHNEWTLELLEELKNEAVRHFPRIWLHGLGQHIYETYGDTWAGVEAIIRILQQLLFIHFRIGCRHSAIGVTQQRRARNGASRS

B1: eYFP-Vpr (WT) (natural protein)
chain: MEQAPEDQGPQREPHNEWTLELLEELKNEAVRHFPRIWLHGLGQHIYETYGDTWAGVEAIIRILQQLLFIHFRIGCRHSRIGVTQQRRARNGASRS
notes: BRET acceptor; also called wild type eYFP-Vpr; pCDNA3.1-eYFP-Vpr(WT); source: HEK293T, transfected, in live cells; not shown: eYFP, N-terminal, kept
Regarding B1, the BRET50 in the assay with Rluc-Vpr (WT) was 0.397 fluorescence/luminescence; with Rluc-Vpr (Q65R), 0.791 fluorescence/luminescence; with Rluc-Vpr (R80A) it was 0.326 fluorescence/luminescence.
